The target of the test is MATOUAmDH2 (native amine dehydrogenase from the Marine Atlas of Tara Oceans Unigenes, MATOUv1). The experiment in a line: crystal structure; complex with NADP+; space group P2(1)2(1)2(1); four molecules in the asymmetric unit, two dimers (A/D and B/C).

Consider “MATOUAmDH2 (native amine dehydrogenase from the Marine Atlas of Tara Oceans Unigenes, MATOUv1) (enzyme)”, for which the stoichiometry N – broadly, the number of molecules, sites or subunits per partner or assembly – came out at 2.

For the origin of these results see article PMC9325545, “Structure and Mutation of the Native Amine Dehydrogenase MATOUAmDH2” (Chembiochem, 2022).
